Laboratory results as given in the supplement of paper PMC10065799, “High-throughput profiling of sequence recognition by tyrosine kinases and SH2 domains using bacterial peptide display” (eLife, 2023).

Experiments:
Fes = Fes (UniProt P07332); experiment: phosphorylation enrichment, bacterial display (enrichment ratio); higher = better substrate or ligand; peptides without Tyr show the background
Jak2 = Jak2 (UniProt O60674); experiment: as above
c-Src = experiment: as above
Fyn = Fyn (UniProt P06241); experiment: as above
FGFR3 = FGFR3 (UniProt P22607); experiment: as above
c-Abl (mouse) = experiment: as above
EPHB1 = EPHB1 (UniProt P54762); experiment: as above
FGFR1 = FGFR1 (UniProt P11362); experiment: as above
Hck = Hck (UniProt P08631); experiment: as above
AncSZ = experiment: as above
EPHB2 = EPHB2 (UniProt P29323); experiment: as above
MERTK = MERTK (UniProt Q12866); experiment: as above
Fer (mouse) = experiment: as above
c-Src SH2 = experiment: SH2 binding enrichment of the phosphorylated peptide, bacterial display (enrichment ratio); higher = better substrate or ligand; peptides without Tyr show the background
SHP2-C SH2 = experiment: as above
Grb2 SH2 = Grb2 SH2 (UniProt P62993); experiment: as above
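Throughout, for SH2 binding enrichment of the phosphorylated peptide, bacterial display: peptide library displayed on the E. coli surface as eCPX fusions, selected cells deep-sequenced, score is each peptide's frequency after selection divided by its frequency in the input.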
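Throughout, for phosphorylation enrichment, bacterial display: 11-residue human phosphosite peptides and single-mutation variants displayed on the E. coli surface, counted by deep sequencing, each peptide's frequency after selection divided by its frequency in the unselected input library; frequency after pTyr selection over input frequency; kinase dosed for 20-30% of maximal phosphorylation in three min.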

Chain of Fes (P07332 whole entry, looked up): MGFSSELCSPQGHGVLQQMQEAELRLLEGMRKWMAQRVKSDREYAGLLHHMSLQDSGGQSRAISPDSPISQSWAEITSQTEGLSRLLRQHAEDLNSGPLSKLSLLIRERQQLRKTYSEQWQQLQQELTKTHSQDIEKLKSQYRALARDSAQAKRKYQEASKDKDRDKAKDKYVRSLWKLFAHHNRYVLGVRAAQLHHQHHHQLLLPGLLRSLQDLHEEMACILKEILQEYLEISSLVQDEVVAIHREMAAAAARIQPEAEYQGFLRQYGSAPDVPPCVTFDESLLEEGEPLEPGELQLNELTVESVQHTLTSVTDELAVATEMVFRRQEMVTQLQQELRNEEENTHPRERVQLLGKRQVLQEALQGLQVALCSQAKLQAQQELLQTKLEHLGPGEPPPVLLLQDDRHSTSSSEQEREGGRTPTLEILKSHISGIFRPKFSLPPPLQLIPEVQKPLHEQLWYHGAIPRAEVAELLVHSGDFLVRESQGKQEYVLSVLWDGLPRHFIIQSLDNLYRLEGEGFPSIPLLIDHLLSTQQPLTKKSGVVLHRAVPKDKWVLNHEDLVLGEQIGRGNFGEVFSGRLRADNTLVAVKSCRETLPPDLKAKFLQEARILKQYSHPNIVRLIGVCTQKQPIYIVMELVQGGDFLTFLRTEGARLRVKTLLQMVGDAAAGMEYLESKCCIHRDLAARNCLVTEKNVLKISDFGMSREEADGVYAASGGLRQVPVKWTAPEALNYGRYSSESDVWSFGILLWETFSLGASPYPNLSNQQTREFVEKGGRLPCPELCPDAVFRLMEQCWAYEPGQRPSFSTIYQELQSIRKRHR
Chain of EPHB1 (P54762 whole entry, looked up): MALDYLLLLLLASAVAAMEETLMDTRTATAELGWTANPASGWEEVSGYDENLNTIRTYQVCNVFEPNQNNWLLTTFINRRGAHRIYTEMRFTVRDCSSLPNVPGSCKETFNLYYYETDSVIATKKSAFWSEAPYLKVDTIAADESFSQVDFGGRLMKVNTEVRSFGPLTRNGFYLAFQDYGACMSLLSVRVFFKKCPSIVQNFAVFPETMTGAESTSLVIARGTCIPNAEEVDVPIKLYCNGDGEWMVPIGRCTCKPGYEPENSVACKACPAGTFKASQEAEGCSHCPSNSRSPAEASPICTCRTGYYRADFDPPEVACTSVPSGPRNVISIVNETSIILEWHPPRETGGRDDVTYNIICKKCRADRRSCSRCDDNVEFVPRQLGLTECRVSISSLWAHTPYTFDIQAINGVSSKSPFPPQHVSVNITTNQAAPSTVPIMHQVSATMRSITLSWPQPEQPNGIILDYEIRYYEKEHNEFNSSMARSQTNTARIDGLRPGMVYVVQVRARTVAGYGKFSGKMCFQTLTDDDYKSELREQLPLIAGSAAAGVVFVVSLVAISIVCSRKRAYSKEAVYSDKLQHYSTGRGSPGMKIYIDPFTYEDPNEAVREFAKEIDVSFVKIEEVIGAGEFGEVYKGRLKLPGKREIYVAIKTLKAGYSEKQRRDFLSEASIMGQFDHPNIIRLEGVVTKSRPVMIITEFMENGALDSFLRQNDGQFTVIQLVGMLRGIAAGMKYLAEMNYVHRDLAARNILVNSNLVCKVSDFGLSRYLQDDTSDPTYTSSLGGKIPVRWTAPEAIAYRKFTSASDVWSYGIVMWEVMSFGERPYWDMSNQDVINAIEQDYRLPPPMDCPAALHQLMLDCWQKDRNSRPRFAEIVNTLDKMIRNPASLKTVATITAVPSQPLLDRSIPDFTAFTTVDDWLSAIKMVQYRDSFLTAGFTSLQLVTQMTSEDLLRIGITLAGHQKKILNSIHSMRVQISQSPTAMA
Chain of EPHB2 (P29323 whole entry, looked up): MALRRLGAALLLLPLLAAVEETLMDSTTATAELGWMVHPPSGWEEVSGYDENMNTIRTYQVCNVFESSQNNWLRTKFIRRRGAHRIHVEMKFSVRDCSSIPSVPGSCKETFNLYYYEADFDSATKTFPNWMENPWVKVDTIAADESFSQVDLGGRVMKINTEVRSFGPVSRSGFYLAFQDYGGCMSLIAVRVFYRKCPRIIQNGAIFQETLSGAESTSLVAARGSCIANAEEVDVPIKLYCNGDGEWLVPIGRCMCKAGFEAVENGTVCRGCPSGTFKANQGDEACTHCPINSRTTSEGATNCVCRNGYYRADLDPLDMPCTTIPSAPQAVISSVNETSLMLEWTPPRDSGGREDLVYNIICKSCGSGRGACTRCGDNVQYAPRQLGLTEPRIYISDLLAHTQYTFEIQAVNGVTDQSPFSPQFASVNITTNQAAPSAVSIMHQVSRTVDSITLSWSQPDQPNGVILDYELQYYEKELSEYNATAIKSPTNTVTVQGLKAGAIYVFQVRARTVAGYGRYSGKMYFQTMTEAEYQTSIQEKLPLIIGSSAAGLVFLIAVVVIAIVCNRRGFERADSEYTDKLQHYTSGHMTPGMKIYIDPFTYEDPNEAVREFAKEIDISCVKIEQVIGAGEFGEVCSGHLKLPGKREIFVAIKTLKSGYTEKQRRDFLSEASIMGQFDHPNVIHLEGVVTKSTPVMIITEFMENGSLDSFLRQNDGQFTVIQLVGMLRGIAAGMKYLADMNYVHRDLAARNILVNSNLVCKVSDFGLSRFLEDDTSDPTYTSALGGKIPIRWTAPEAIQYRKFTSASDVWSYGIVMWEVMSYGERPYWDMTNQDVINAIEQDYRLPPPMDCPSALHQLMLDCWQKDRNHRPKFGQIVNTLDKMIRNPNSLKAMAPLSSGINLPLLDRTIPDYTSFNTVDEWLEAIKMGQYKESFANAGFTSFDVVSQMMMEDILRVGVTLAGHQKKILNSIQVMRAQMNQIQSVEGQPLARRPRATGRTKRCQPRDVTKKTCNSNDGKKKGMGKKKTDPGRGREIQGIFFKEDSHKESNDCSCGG
Chain of Jak2 (O60674 whole entry, looked up): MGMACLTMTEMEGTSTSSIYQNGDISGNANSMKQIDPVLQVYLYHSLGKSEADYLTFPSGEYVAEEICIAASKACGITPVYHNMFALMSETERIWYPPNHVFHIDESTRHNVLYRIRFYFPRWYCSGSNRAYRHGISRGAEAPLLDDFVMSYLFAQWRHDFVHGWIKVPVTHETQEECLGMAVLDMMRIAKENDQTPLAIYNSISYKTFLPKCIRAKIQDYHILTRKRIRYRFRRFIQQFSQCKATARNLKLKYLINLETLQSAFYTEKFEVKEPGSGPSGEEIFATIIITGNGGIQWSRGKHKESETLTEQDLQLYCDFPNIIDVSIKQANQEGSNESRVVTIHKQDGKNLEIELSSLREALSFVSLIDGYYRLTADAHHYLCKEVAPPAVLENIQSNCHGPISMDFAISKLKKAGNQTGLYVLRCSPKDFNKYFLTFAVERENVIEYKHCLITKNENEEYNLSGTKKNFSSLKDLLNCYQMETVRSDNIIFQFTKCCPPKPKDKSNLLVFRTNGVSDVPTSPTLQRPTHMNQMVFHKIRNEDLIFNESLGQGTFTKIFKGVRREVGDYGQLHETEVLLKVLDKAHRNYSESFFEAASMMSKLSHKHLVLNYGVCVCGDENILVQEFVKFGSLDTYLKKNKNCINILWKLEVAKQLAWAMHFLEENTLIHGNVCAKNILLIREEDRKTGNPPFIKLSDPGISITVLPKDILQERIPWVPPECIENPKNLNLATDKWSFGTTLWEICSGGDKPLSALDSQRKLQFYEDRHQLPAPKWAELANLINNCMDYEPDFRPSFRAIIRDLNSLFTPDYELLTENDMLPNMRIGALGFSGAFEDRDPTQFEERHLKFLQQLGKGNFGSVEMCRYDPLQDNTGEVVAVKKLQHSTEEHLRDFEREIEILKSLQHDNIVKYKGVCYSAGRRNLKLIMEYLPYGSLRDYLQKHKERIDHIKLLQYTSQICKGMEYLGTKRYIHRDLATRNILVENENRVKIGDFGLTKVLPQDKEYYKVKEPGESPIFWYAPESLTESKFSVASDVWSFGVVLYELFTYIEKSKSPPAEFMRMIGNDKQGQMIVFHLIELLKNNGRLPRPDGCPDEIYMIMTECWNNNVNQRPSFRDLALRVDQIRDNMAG
Chain of Fyn (P06241 whole entry, looked up): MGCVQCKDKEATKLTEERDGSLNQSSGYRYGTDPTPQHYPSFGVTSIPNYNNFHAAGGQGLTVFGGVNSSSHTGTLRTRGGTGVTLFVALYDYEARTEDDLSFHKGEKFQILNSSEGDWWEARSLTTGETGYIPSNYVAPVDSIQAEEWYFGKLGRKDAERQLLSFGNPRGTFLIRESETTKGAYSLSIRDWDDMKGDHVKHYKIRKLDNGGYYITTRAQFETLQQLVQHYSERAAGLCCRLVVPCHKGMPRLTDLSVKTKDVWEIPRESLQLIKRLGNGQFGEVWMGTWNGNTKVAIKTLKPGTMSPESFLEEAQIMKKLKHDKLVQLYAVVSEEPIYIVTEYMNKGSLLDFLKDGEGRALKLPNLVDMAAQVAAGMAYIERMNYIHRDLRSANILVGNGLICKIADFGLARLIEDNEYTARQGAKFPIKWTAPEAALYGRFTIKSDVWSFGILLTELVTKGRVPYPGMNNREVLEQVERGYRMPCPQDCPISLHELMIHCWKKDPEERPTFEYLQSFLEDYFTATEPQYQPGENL
Chain of Grb2 SH2 (P62993 whole entry, looked up, the tested form may be a part): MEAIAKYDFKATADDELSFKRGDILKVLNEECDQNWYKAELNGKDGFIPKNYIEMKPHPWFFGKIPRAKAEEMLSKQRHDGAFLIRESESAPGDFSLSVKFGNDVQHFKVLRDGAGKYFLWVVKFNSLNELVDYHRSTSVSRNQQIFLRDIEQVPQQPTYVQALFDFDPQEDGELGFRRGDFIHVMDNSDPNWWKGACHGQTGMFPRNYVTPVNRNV

Sequence: RRKRAYVEIEF [MAK16_Y282_Q277R_YF]
- phosphorylation enrichment (Fes): 0.828
- phosphorylation enrichment (Jak2): 0.593
- phosphorylation enrichment (c-Src): 0.542
- phosphorylation enrichment (Fyn): 0.58
- phosphorylation enrichment (FGFR3): 0.871
- phosphorylation enrichment (c-Abl (mouse)): 0.58
- phosphorylation enrichment (EPHB1): 0.582
- phosphorylation enrichment (FGFR1): 0.563
- phosphorylation enrichment (Hck): 0.505
- phosphorylation enrichment (AncSZ): 0.665
- phosphorylation enrichment (EPHB2): 0.658
- phosphorylation enrichment (MERTK): 0.759
- phosphorylation enrichment (Fer (mouse)): 0.551
- SH2 binding enrichment (c-Src SH2): 0.434
- SH2 binding enrichment (SHP2-C SH2): 0.459
- SH2 binding enrichment (Grb2 SH2): 0.504

Sequence: DGFIDYAEFAK [MCFD2_Y138_YF]
- phosphorylation enrichment (Fes): 1.23
- phosphorylation enrichment (Jak2): 1.16
- phosphorylation enrichment (c-Src): 0.675
- phosphorylation enrichment (Fyn): 0.674
- phosphorylation enrichment (FGFR3): 0.647
- phosphorylation enrichment (c-Abl (mouse)): 0.728
- phosphorylation enrichment (EPHB1): 0.793
- phosphorylation enrichment (FGFR1): 0.522
- phosphorylation enrichment (Hck): 0.48
- phosphorylation enrichment (AncSZ): 1.13
- phosphorylation enrichment (EPHB2): 0.718
- phosphorylation enrichment (MERTK): 0.468
- phosphorylation enrichment (Fer (mouse)): 0.456
- SH2 binding enrichment (c-Src SH2): 0.397
- SH2 binding enrichment (SHP2-C SH2): 0.753
- SH2 binding enrichment (Grb2 SH2): 0.829

Sequence: DRTVHYVDEKG [IFT140_Y216_G212R]
- phosphorylation enrichment (Fes): 0.742
- phosphorylation enrichment (Jak2): 0.597
- phosphorylation enrichment (c-Src): 0.341
- phosphorylation enrichment (Fyn): 0.429
- phosphorylation enrichment (FGFR3): 0.515
- phosphorylation enrichment (c-Abl (mouse)): 0.46
- phosphorylation enrichment (EPHB1): 0.431
- phosphorylation enrichment (FGFR1): 0.413
- phosphorylation enrichment (Hck): 0.441
- phosphorylation enrichment (AncSZ): 0.666
- phosphorylation enrichment (EPHB2): 0.436
- phosphorylation enrichment (MERTK): 0.393
- phosphorylation enrichment (Fer (mouse)): 0.368
- SH2 binding enrichment (c-Src SH2): 0.503
- SH2 binding enrichment (SHP2-C SH2): 0.916
- SH2 binding enrichment (Grb2 SH2): 0.979

Sequence: IRDLKYTIENP [SND1_Y178]
- phosphorylation enrichment (Fes): 1.38
- phosphorylation enrichment (Jak2): 1.19
- phosphorylation enrichment (c-Src): 0.47
- phosphorylation enrichment (Fyn): 0.456
- phosphorylation enrichment (FGFR3): 0.807
- phosphorylation enrichment (c-Abl (mouse)): 0.785
- phosphorylation enrichment (EPHB1): 0.521
- phosphorylation enrichment (FGFR1): 0.776
- phosphorylation enrichment (Hck): 0.507
- phosphorylation enrichment (AncSZ): 1.21
- phosphorylation enrichment (EPHB2): 0.522
- phosphorylation enrichment (MERTK): 0.407
- phosphorylation enrichment (Fer (mouse)): 0.541
- SH2 binding enrichment (c-Src SH2): 0.438
- SH2 binding enrichment (SHP2-C SH2): 0.762
- SH2 binding enrichment (Grb2 SH2): 0.748

Sequence: CSEEMYCLMLQ [RET_Y981_R982C]
- phosphorylation enrichment (Fes): 1.3
- phosphorylation enrichment (Jak2): 1.22
- phosphorylation enrichment (c-Src): 2.26
- phosphorylation enrichment (Fyn): 1.08
- phosphorylation enrichment (FGFR3): 2.76
- phosphorylation enrichment (c-Abl (mouse)): 1.25
- phosphorylation enrichment (EPHB1): 1.02
- phosphorylation enrichment (FGFR1): 3.5
- phosphorylation enrichment (Hck): 1.31
- phosphorylation enrichment (AncSZ): 3.36
- phosphorylation enrichment (EPHB2): 0.794
- phosphorylation enrichment (MERTK): 4.4
- phosphorylation enrichment (Fer (mouse)): 6.9
- SH2 binding enrichment (c-Src SH2): 0.722
- SH2 binding enrichment (SHP2-C SH2): 0.949
- SH2 binding enrichment (Grb2 SH2): 0.943

Sequence: YGMQLYQNYMH [GRB14_Y347]
- phosphorylation enrichment (Fes): 1.02
- phosphorylation enrichment (Jak2): 0.727
- phosphorylation enrichment (c-Src): 3.97
- phosphorylation enrichment (Fyn): 4.92
- phosphorylation enrichment (FGFR3): 0.909
- phosphorylation enrichment (c-Abl (mouse)): 1.2
- phosphorylation enrichment (EPHB1): 9.11
- phosphorylation enrichment (FGFR1): 0.888
- phosphorylation enrichment (Hck): 4.84
- phosphorylation enrichment (AncSZ): 1.11
- phosphorylation enrichment (EPHB2): 12.4
- phosphorylation enrichment (MERTK): 3.75
- phosphorylation enrichment (Fer (mouse)): 8.99
- SH2 binding enrichment (c-Src SH2): 1.6
- SH2 binding enrichment (SHP2-C SH2): 1.22
- SH2 binding enrichment (Grb2 SH2): 6.36

Sequence: KWHREYNSKYV [RICTOR_Y835]
- phosphorylation enrichment (Fes): 0.414
- phosphorylation enrichment (Jak2): 0.513
- phosphorylation enrichment (c-Src): 0.294
- phosphorylation enrichment (Fyn): 0.398
- phosphorylation enrichment (FGFR3): 0.42
- phosphorylation enrichment (c-Abl (mouse)): 0.461
- phosphorylation enrichment (EPHB1): 0.348
- phosphorylation enrichment (FGFR1): 0.37
- phosphorylation enrichment (Hck): 0.371
- phosphorylation enrichment (AncSZ): 0.461
- phosphorylation enrichment (EPHB2): 0.401
- phosphorylation enrichment (MERTK): 0.339
- phosphorylation enrichment (Fer (mouse)): 0.32
- SH2 binding enrichment (c-Src SH2): 1.14
- SH2 binding enrichment (SHP2-C SH2): 1.31
- SH2 binding enrichment (Grb2 SH2): 1.47

Sequence: HYVYYYSYLLK [PTEN_Y178_R173H]
- phosphorylation enrichment (Fes): 2.12
- phosphorylation enrichment (Jak2): 2.42
- phosphorylation enrichment (c-Src): 3.08
- phosphorylation enrichment (Fyn): 1.29
- phosphorylation enrichment (FGFR3): 5.92
- phosphorylation enrichment (c-Abl (mouse)): 2.31
- phosphorylation enrichment (EPHB1): 2.74
- phosphorylation enrichment (FGFR1): 6.85
- phosphorylation enrichment (Hck): 3.19
- phosphorylation enrichment (AncSZ): 2.09
- phosphorylation enrichment (EPHB2): 1.37
- phosphorylation enrichment (MERTK): 5.74
- phosphorylation enrichment (Fer (mouse)): 0.888
- SH2 binding enrichment (c-Src SH2): 0.425
- SH2 binding enrichment (SHP2-C SH2): 0.702
- SH2 binding enrichment (Grb2 SH2): 0.865
